Numbering of substitutions follows the chain as printed.
B1: 43L6-xiIgG (antibody, V domains shown)
VH: QVQLKESGPDLVAPSQSLSLTCSVSGFSLTSYGIHWVRQPPGKGLEWLVVIWSDGRTTYNSGLKSRLSISKDNSKSQVLLKMNSLRTDDTAIYYCVRHPAFGPHAMDYWGQGTSVTVSS
VL: DIVMTQAAPSVPVTPGESVSISCRSSKSLLNSNGNTYLYWFLQRPGQSPQLLIYRMSNLASGVPDRFSGSGSGTDFTLRISRVEAGDVGVYYCMQYLEYPVTFGAGTKLELKR
notes: murine variable regions on human IgG1 / kappa constant regions; also called 43L6 chimeric antibody
B2: 11M23-xiIgG (antibody, V domains shown)
VH: QVQLKESGPDLVAPSQSLSITCTVSGFSLTNYGVHWVRQPPGKGLEWLVVIWSDGRINYNSALKSRLSITKDNSKRQVFLKMNSLQIDDTAIYYCVRHPAFGPHAMDYWGQGISVTVSS
VL: B1 VL with A7D, V11I, Q50H, I53L, L59P, V63A, D75E, G86E, V101P, K108R
notes: Murine variable regions on human IgG1 / kappa constant regions; also called 11M23 chimeric antibody
B3: IMAB362 (antibody, human IgG1, kappa, V domains shown)
VH: QVQLQQPGAELVRPGASVKLSCKASGYTFTSYWINWVKQRPGQGLEWIGNIYPSDSYTNYNQKFKDKATLTVDKSSSTAYMQLSSPTSEDSAVYYCTRSWRGNSFDYWGQGTTLTVSS
VL: DIVMTQSPSSLTVTAGEKVTMSCKSSQSLLNSGNQKNYLTWYQQKPGQPPKLLIYWASTRESGVPDRFTGSGSGTDFTLTISSVQAEDLAVYYCQNDYSYPFTFGSGTKLEIKR
notes: Chimeric anti-CLDN18.2 antibody of Ganymed, used as control; also called control antibody IMAB362
B4: 20L17-xiIgG (antibody, V domains shown)
VH: DVQLVESGGGLVQPGGSRKLSCAASGFTFSSFGMHWVRQAPEKGLEWVAYISSGSSTIYYPDTVKGRFTVSRDNPKNTLFLQMTSLRSEDTAMYYCVRLGPRGNVMDHWGQGTSVTVSS
VL: B3 VL with K36R, D97V, S99F, F102L, S106T, I112L, K113R
notes: murine variable regions on human IgG1 / kappa constant regions; also called 20L17 chimeric antibody
B5: 11M23-hz00 (antibody, human IgG1, V domains shown)
VH: QVQLVESGGGVVQPGRSLRLSCAASGFSLTNYGVHWVRQAPGKGLEWVAVIWSDGRINYNSALKSRFTISRDNSKNTLYLQMNSLRAEDTAVYYCARHPAFGPHAMDYWGQGTLVTVSS
VL: DIVMTQSPLSLPVTPGEPASISCRSSKSLLNSNGNTYLYWYLQKPGQSPQLLIYRMSNPASGVPDRFSGSGSGTDFTLKISRVEAEDVGVYYCMQYLEYPPTFGAGTKLEIK
notes: Humanized (direct CDR graft)
B6: 11M23-hz22 (antibody, V domains shown)
VH: B5 VH with D54E, N60Q, R71K
VL: B5 VL with N31S, N33S, Y41F
B7: 11M23-hz11 (antibody, V domains shown)
VH: B5 VH with R71K
VL: B5 VL with Y41F
B8: 48G12-xiIgG (antibody, V domains shown)
VH: EVQLRQSGPELVKPGASVKMSCKASGYTFTTYIINWVKQKPGQGLEWIGYINPYNDDTRYNERVKGKATLTSDKSSSTAYMELSSLTSEDSAVYYCARFYFGNSFTYWGQGTLVTVSA
VL: DIVMTQSPSSLPVTVGERVTMTCKSSQGLFNSGNQRNYLTWYQQKPGQPPKLLIYWASTRESGVPDRFTGSGSGTDFTLTISSVQAEDLAIYYCQNNYIYPLTFGAGTKLELKR
notes: murine variable regions on human IgG1 / kappa constant regions; also called 48G12 chimeric antibody
B9: 50C14-xiIgG (antibody, V domains shown)
VH: B8 VH with D57G, Y100H
VL: B8 VL with V15T, R18K, S32N, T69I, Y100F
notes: murine variable regions on human IgG1 / kappa constant regions; also called 50C14 chimeric antibody

What was measured:
[1] = molecular target: T1, human CLDN18.2 expressed on cell surfaces (human, UniProt P56856-2 1-261); assay: flow cytometry on CHOK1 cells expressing human CLDN18.2, goat anti-human IgG secondary, normalised MFI
T1 construct: whole, on cells; also called CHOK1 cells stably expressing human CLDN18.2
Experimental: The chimeric anti-human CLDN18.2 antibodies were diluted 2-fold in gradient from an initial concentration of 100 nM and solutions of each antibody of 16 concentrations were obtained. 10 μl of the solutions of each antibody of each concentration was added to a 384-well plate. CHOK1 cells expressing CLDN18.2 on the cell surface were collected by centrifugation for 5 min at 100 g at room temperature, and the cells were washed with PBS containing 0.5% BSA once and then were centrifuged for 5 min at 100 g at room temperature. The cells were resuspended at a density of about 2×10⁶ cells/ml, and 10 μl was added to each well of the 384-well plate to which the antibody had been added. After incubation for 1 hour at 4° C., fluorescently labeled secondary goat anti-human IgG antibody was added. After continued incubation for 1 hour at 4° C., the mean fluorescence readings of the cell populations were analyzed by a flow cytometer.

[2] = molecular target: T2, antigen human CLDN18.2, His-tagged (human, UniProt P56856-2 1-261, limits assumed); assay: BLI (Fortebio), His-tagged antigen on NTA probe, 100 nM antibody, 1:1 fit
T2 construct: Recombinant antigen used in the Fortebio assay (His-tagged, captured on NTA probe); also called His-tagged antigen; not shown: His tag
Experimental: The binding kinetic parameters of the chimeric antibodies and the humanized antibodies thereof to the antigen human CLDN18.2 were analyzed by a Fortebio (BLITZ pro1.1.0.28) instrument. Before performing the assay, an NTA bioprobe was soaked in PBS for 10 min, and the probe was then placed in PBS containing 100 nM antigen for 300 s to capture the His-tagged antigen. The probe was further subjected to a binding reaction with 100 nM antibody for a binding time of 400 s, and the probe was then transferred to PBS and subjected to a dissociation reaction for 600 s. When the assay was finished, data from which the response value of a blank control had been deducted were fitted to a 1:1 Langmuir binding model using software, and then the kinetic constants for antigen-antibody binding were calculated.

[3] = molecular target: T2, antigen human CLDN18.2, His-tagged; assay: SPR (BIAcore), antibody captured by anti-human Fc, antigen as analyte
Experimental: Referring to the instructions provided in the Human Antibody Capture Kit (cat No. BR-1008-39, Lot 10261753) from GE Healthcare, the analytical channel and the control sample channel on a CM5 sensor chip were first saturated and coupled with the maximum amount of anti-human Fc antibody, then buffers containing anti-human CLDN18.2 chimeric antibodies, humanized antibodies or a control antibody IMAB362 at 7.5 μg/ml were allowed to flow through the analytical channel and uniformly distribute. Finally, antigen samples diluted in gradient (the initial concentration was 20 nM and diluted by 1:3 to get 8 concentrations, and the concentration 0.741 nM was set to be repeated) were allowed to flow through both the analytical channel and the sample channel, and the photoreactions upon the binding of antibody to antigen were measured. Subsequently, the association constant Kon and dissociation constant Koff and affinity constant KD of each antibody were finally obtained by instrument software fitting analysis.

[4] = molecular target: T1, human CLDN18.2 expressed on cell …; assay: cell-based or functional assay
[5] = molecular target: T1, human CLDN18.2 expressed on cell …; assay: cell-based or functional assay; remark: listed apart in the source

Binder | binding result [1] | Kd [2] [nM] | Response [2] | koff [2] [s⁻¹] | kon [2] [M⁻¹ s⁻¹] | other results
B1 | binds |  |  |  |  | 
B2 |  | 0.293 | 0.184 | 0.000107 | 366000 | 
B3 |  |  |  |  |  | Kd [3]: 136 nM; koff [3]: 0.201 s⁻¹; kon [3]: 1.48e+06 M⁻¹ s⁻¹; CDC EC50, BxPC3 cells stably expressing human CLDN18.2 (CCK-8) [4]: 52.2 nM; CDC EC50, CHOK1 cells stably expressing human CLDN18.2 (CCK-8) [4]: 30.4 nM; CDC EC50, NCI-N87 cells stably expressing human CLDN18.2 (CCK-8) [4]: 474 nM; ADCC reporter EC50 (Jurkat NFAT-luciferase effector cells), BxPC3 target cells [5]: 0.106 nM; ADCC reporter EC50 (Jurkat NFAT-luciferase effector cells), CHOK1 target cells [5]: 0.593 nM; ADCC reporter EC50 (Jurkat NFAT-luciferase effector cells), NCI-N87 target cells [5]: 0.0909 nM
B4 | binds |  |  |  |  | 
B5 |  | 1.49 | 0.164 | 0.000324 | 218000 | 
B6 |  | 2.92 | 0.136 | 0.00195 | 670000 | 
B7 |  | 1.29 | 0.174 | 0.00046 | 356000 | 
B8 | binds |  |  |  |  | 
B9 | binds |  |  |  |  | 

Source: patent US20230250168A1 (MABWELL SHANGHAI BIOSCIENCE, published 2023)
